Measurements published in the supplement of paper PMC11316812.
± gives the standard deviation of the averaged measurements.

Legend:
MCF7 = experiment: percentage of EdU-negative (G0-arrested) nuclei per well, 72 h; higher = more G0 arrest; settings: reference: sequence is the full UniProt precursor, the tested protein was the secreted form or ectodomain
hTERT-HMEC = experiment: as above; settings: reference: sequence is the full UniProt precursor, the tested protein was the secreted form or ectodomain
[1] = protein concentration 0.0225 µM
[2] = protein concentration 0.03125 µM
[3] = protein concentration 0.3125 µM
[4] = protein concentration 0.02778 µM
[5] = protein concentration 0.2778 µM
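Note: secreted proteins added to cultured cells, EdU pulse at the end, nuclei found by Hoechst imaging, EdU status from nuclear versus surrounding ring intensity ratio, PBS as neutral control.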

MLRMRVPALLVLLFCFRGRAGPSPHFLQQPEDLVVLLGEEARLPCALGAYWGLVQWTKSGLALGGQRDLPGWSRYWISGNAANGQHDLHIRPVELEDEASYECQATQAGLRSRPAQLHVLVPPEAPQVLGGPSVSLVAGVPANLTCRSRGDARPTPELLWFRDGVLLDGATFHQTLLKEGTPGSVESTLTLTPFSHDDGATFVCRARSQALPTGRDTAITLSLQYPPEVTLSASPHTVQEGEKVIFLCQATAQPPVTGYRWAKGGSPVLGARGPRLEVVADASFLTEPVSCEVSNAVGSANRSTALDVLFGPILQAKPEPVSVDVGEDASFSCAWRGNPLPRVTWTRRGGAQVLGSGATLRLPSVGPEDAGDYVCRAEAGLSGLRGGAAEARLTVNAPPVVTALHSAPAFLRGPARLQCLVFASPAPDAVVWSWDEGFLEAGSQGRFLVETFPAPESRGGLGPGLISVLHISGTQESDFSRSFNCSARNRLGEGGAQASLGRRDLLPTVRIVAGVAAATTTLLMVITGVALCCWRHSKASASFSEQKNLMRIPGSSDGSSSRGPEEEETGSREDRGPIVHTDHSDLVLEEEGTLETKDPTNGYYKVRGVSVSLSLGEAPGGGLFLPPPSPLGPPGTPTFYDFNPHLGMVPPCRLYRARAGYLTTPHPRAFTSYIKPTSFGPPDLAPGTPPFPYAAFPTPSHPRLQTHV [Q6UWL6]
percentage of EdU-negative (MCF7; [1]): 26.9 ± 3.4% | percentage of EdU-negative (MCF7; protein concentration 0.225 µM): 28.2 ± 1.2% | percentage of EdU-negative (hTERT-HMEC; [1]): 5.24 ± 0.16% | percentage of EdU-negative (hTERT-HMEC; protein concentration 0.225 µM): 5.69 ± 0.77%

MKLGLLCALLSLLAGHGWADTRAIGAEECRPNSQPWQAGLFHLTRLFCGATLISDRWLLTAAHCRKPYLWVRLGEHHLWKWEGPEQLFRVTDFFPHPGFNKDLSANDHNDDIMLIRLPRQARLSPAVQPLNLSQTCVSPGMQCLISGWGAVSSPKALFPVTLQCANISILENKLCHWAYPGHISDSMLCAGLWEGGRGSCQGDSGGPLVCNGTLAGVVSGGAEPCSRPRRPAVYTSVCHYLDWIQEIMEN [Q9UKQ9]
percentage of EdU-negative (MCF7; [1]): 26.66 ± 0.14% | percentage of EdU-negative (MCF7; protein concentration 0.225 µM): 29.4 ± 2.3% | percentage of EdU-negative (hTERT-HMEC; [1]): 5.253 ± 0.046% | percentage of EdU-negative (hTERT-HMEC; protein concentration 0.225 µM): 5.62 ± 1.2%

MLLLGAVLLLLALPGHDQETTTQGPGVLLPLPKGACTGWMAGIPGHPGHNGAPGRDGRDGTPGEKGEKGDPGLIGPKGDIGETGVPGAEGPRGFPGIQGRKGEPGEGAYVYRSAFSVGLETYVTIPNMPIRFTKIFYNQQNHYDGSTGKFHCNIPGLYYFAYHITVYMKDVKVSLFKKDKAMLFTYDQYQENNVDQASGSVLLHLEVGDQVWLQVYGEGERNGLYADNDNDSTFTGFLLYHDTN
percentage of EdU-negative (MCF7; [2]): 26.2 ± 2.3% | percentage of EdU-negative (MCF7; [3]): 25.6 ± 1.1% | percentage of EdU-negative (hTERT-HMEC; [2]): 5.07 ± 0.4% | percentage of EdU-negative (hTERT-HMEC; [3]): 5.02 ± 0.22%

MDMAWQMMQLLLLALVTAAGSAQPRSARARTDLLNVCMNAKHHKTQPSPEDELYGQCSPWKKNACCTASTSQELHKDTSRLYNFNWDHCGKMEPTCKRHFIQDSCLYECSPNLGPWIRQVNQSWRKERILNVPLCKEDCERWWEDCRTSYTCKSNWHKGWNWTSGINECPAGALCSTFESYFPTPAALCEGLWSHSFKVSNYSRGSGRCIQMWFDSAQGNPNEEVAKFYAAAMNAGAPSRGIIDS [A0A087WXL1]
percentage of EdU-negative (MCF7; [1]): 25.4 ± 0.5% | percentage of EdU-negative (MCF7; protein concentration 0.225 µM): 24 ± 1.3% | percentage of EdU-negative (hTERT-HMEC; [1]): 5.28 ± 0.77% | percentage of EdU-negative (hTERT-HMEC; protein concentration 0.225 µM): 4.93 ± 0.46%

MRLLQLLFRASPATLLLVLCLQLGANKAQDNTRKIIIKNFDIPKSVRPNDEVTAVLAVQTELKECMVVKTYLISSIPLQGAFNYKYTACLCDDNPKTFYWDFYTNRTVQIAAVVDVIRELGICPDDAAVIPIKNNRFYTIEILKVE
percentage of EdU-negative (MCF7; [1]): 25.1 ± 2.6% | percentage of EdU-negative (MCF7; protein concentration 0.225 µM): 25.5 ± 0.54% | percentage of EdU-negative (hTERT-HMEC; [1]): 4.779 ± 0.024% | percentage of EdU-negative (hTERT-HMEC; protein concentration 0.225 µM): 5.95 ± 1.6%

MSRPQLRRWRLVSSPPSGVPGLALLALLALLALRLAAGTDCPCPEPELCRPIRHHPDFEVFVFDVGQKTWKSYDWSQITTVATFGKYDSELMCYAHSKGARVVLKGDVSLKDIIDPAFRASWIAQKLNLAKTQYMDGINIDIEQEVNCLSPEYDALTALVKETTDSFHREIEGSQVTFDVAWSPKNIDRRCYNYTGIADACDFLFVMSYDEQSQIWSECIAAANAPYNQTLTGYNDYIKMSINPKKLVMGVPWYGYDYTCLNLSEDHVCTIAKVPFRGAPCSDAAGRQVPYKTIMKQINSSISGNLWDKDQRAPYYNYKDPAGHFHQVWYDNPQSISLKATYIQNYRLRGIGMWNANCLDYSGDAVAKQQTEEMWEVLKPKLLQR
percentage of EdU-negative (MCF7; [4]): 25.1 ± 3.2% | percentage of EdU-negative (MCF7; [5]): 24.6 ± 1.1% | percentage of EdU-negative (hTERT-HMEC; [4]): 5.6 ± 0.68% | percentage of EdU-negative (hTERT-HMEC; [5]): 6.64 ± 0.1%

MRFLAATFLLLALSTAAQAEPVQFKDCGSVDGVIKEVNVSPCPTQPCQLSKGQSYSVNVTFTSNIQSKSSKAVVHGILMGVPVPFPIPEPDGCKSGINCPIQKDKTYSYLNKLPVKSEYPSIKLVVEWQLQDDKNQSLFCWEIPVQIVSHL
percentage of EdU-negative (MCF7; [2]): 25.6 ± 0.29% | percentage of EdU-negative (MCF7; [3]): 27.1 ± 2% | percentage of EdU-negative (hTERT-HMEC; [2]): 4.48 ± 0.41% | percentage of EdU-negative (hTERT-HMEC; [3]): 5.49 ± 0.12%

MGLLLPLALCILVLCCGAMSPPQLALNPSALLSRGCNDSDVLAVAGFALRDINKDRKDGYVLRLNRVNDAQEYRRGGLGSLFYLTLDVLETDCHVLRKKAWQDCGMRIFFESVYGQCKAIFYMNNPSRVLYLAAYNCTLRPVSKKKIYMTCPDCPSSIPTDSSNHQVLEAATESLAKYNNENTSKQYSLFKVTRASSQWVVGPSYFVEYLIKESPCTKSQASSCSLQSSDSVPVGLCKGSLTRTHWEKFVSVTCDFFESQAPATGSENSAVNQKPTNLPKVEESQQKNTPPTDSPSKAGPRGSVQYLPDLDDKNSQEKGPQEAFPVHLDLTTNPQGETLDISFLFLEPMEEKLVVLPFPKEKARTAECPGPAQNASPLVLPP [Q9UGM5]
percentage of EdU-negative (MCF7; [2]): 26.5 ± 2.8% | percentage of EdU-negative (MCF7; [3]): 27.9 ± 0.97% | percentage of EdU-negative (hTERT-HMEC; [2]): 5.24 ± 0.29% | percentage of EdU-negative (hTERT-HMEC; [3]): 7.43 ± 0.49%

MKGSIFTLFLFSVLFAISEVRSKESVRLCGLEYIRTVIYICASSRWRRHQEGIPQAQQAETGNSFQLPHKREFSEENPAQNLPKVDASGEDRLWGGQMPTEELWKSKKHSVMSRQDLQTLCCTDGCSMTDLSALC [Q9Y5Q6]
percentage of EdU-negative (MCF7; [1]): 25.5 ± 2.3% | percentage of EdU-negative (MCF7; protein concentration 0.225 µM): 27.6 ± 3% | percentage of EdU-negative (hTERT-HMEC; [1]): 5.011 ± 0.042% | percentage of EdU-negative (hTERT-HMEC; protein concentration 0.225 µM): 4.97 ± 0.86%
